Measurements from paper PMC11971276 (Nature Communications, 2025).
One block for each molecule: values may come before it.

Assays:
[1] = target: recombinant CCN2 (UniProt P29279); assay: ELISA
[2] = target: Human CCN2 tagged with human Fc (human) (UniProt P29279); assay: SPR
[3] = target: human CCN2 (R&D Systems) (human) (UniProt P29279); assay: electrochemiluminescence assay
[4] = target: biotinylated human CCN2 (human) (UniProt P29279); assay: competition electrochemiluminescence assay
[5] = target: biotinylated human CCN2 (Homo sapiens, UniProt P29279, biotin (sites not given)); assay: competition electrochemiluminescence assay
Sequence of biotinylated human CCN2 (P29279 27-349): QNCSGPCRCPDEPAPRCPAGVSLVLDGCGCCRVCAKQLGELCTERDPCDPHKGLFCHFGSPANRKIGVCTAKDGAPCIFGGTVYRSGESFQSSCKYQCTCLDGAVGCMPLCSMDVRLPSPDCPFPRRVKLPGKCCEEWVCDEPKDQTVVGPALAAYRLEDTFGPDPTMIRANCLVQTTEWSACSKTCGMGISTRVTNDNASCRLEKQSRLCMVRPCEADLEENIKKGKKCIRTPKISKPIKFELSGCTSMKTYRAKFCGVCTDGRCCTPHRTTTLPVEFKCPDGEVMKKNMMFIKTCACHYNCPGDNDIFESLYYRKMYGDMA

Sequence of Human CCN2 tagged with human Fc (human) (P29279 27-349): as above
Sequence of biotinylated human CCN2 (human) (P29279 27-349): as above
Sequence of recombinant CCN2 (P29279 27-349): as above
Sequence of human CCN2 (R&D Systems) (human) (P29279 27-349): as above

EC50 [1]: 0.39 nM
Kd [2]: 0.06 nM
fold higher affinity than pamrevlumab [2]: 364 fold
fold slower dissociation than pamrevlumab [2]: 169 fold
relative potency [%], post-nebulization [3]: 100%
IC50 [4]: 0.35 nM
Molecule: PRS-220 (designed binder)

IC50 [5]: 1.14 nM
B1: pamrevlumab (antibody, V domains shown)
VH: EGQLVQSGGGLVHPGGSLRLSCAGSGFTFSSYGMHWVRQAPGKGLEWVSGIGTGGGTYSTDSVKGRFTISRDNAKNSLYLQMNSLRAEDMAVYYCARGDYYGSGSFFDCWGQGTLVTVSS
VL: DIQMTQSPSSLSASVGDRVTITCRASQGISSWLAWYQQKPEKAPKSLIYAASSLQSGVPSRFSGSGSGTDFTLTISSLQPEDFATYYCQQYNSYPPTFGQGTKLEIK
